In patent publication US20220332804A1 (CSL INNOVATION, published 2022):
Where a chain is given by its changes, count along the chain named.

Legend:
Assay in all cases: SPR, KD relative to WT C2;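 note: biacore SPR at 37 °C, anti-C2 mAbs captured on anti-human IgG chips with alanine or serine point mutants of C2 as analyte, KD from 1:1 fit compared with wild-type C2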
human C2 Q447A = target: T1, human C2 Q447A (human, UniProt P06681 21-752)
T1 sequence: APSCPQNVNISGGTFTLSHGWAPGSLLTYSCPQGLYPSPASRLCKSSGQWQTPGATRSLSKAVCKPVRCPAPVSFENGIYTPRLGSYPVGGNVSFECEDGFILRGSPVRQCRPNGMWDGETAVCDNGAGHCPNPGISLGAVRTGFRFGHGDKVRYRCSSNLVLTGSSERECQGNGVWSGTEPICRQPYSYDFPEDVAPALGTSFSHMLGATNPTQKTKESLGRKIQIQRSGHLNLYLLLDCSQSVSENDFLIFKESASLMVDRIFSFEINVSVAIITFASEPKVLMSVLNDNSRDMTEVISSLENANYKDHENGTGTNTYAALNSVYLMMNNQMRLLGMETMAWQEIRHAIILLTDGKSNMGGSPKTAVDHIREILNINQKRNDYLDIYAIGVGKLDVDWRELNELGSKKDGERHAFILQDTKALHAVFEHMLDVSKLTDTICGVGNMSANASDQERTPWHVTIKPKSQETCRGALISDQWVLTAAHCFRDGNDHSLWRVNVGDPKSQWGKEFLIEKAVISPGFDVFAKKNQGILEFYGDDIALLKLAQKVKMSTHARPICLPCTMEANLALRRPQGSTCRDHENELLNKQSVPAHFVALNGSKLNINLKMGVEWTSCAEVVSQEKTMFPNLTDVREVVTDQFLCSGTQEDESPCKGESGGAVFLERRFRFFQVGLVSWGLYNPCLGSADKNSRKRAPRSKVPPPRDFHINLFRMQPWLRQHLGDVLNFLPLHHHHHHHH

human C2 N327A = target: T2, human C2 N327A (human, UniProt P06681 21-752)
T2 sequence: T1 sequence with N307A, A427Q

human C2 D441A = target: T3, human C2 D441A (human, UniProt P06681 21-752)
T3 sequence: T1 sequence with D421A, A427Q

human C2 G677A = target: T4, human C2 G677A (human, UniProt P06681 21-752)
T4 sequence: T1 sequence with A427Q, G657A

B1: RF16-242 (antibody, human IgG4 S228P, lambda, V domains shown)
VH: EVQLLQSGAEVKKPGESLKISCKGSGYSFTSYWIGWVRQMPGKGLEWMGIIYPGDSDTRYSPSFQGQVTISADKSISTAYLQWSSLKASDTAMYYCARRGHYGDYFDYWGQGTLVTVSS
VL: SYELTQPPSVSVSPGQTARITCSGDALPKKYAYWYHQKSGQAPVLVIYEDRRRPSEIPERFSGSSSGTMATLTITGAQVEDEGVYFCYSRDRAGNQRVFGGGTQLTVLG
notes: pH-dependent anti-C2 antibody from a phage display library
**Q.** Which Fold diff (human C2 Q447A) does the source give for B1 here?
**A.** 4 fold

**Q.** What about the Fold diff (human C2 N327A) of the same binder?
**A.** 5 fold

**Q.** What about the Fold diff (human C2 D441A) of the same binder?
**A.** 16 fold

**Q.** What about the Fold diff (human C2 G677A) of the same binder?
**A.** 1 fold
